# Tested on: Abp1 PPIs
# Test: DHFR-PCA of Abp1 SH3-swapped baits (Fig. 2B-D, S2C, S2F);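 for Protein-protein interaction distance between Abp1 SH3-swapped baits, to ABP1: Euclidean distance between DHFR-PCA score profiles of the baits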;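 for Protein-protein interaction distance between Abp1 SH3-swapped baits, to BEM1-2: Euclidean distance between DHFR-PCA score profiles of the baits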;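 for Protein-protein interaction distance between Abp1 SH3-swapped baits, to BOI1: Euclidean distance between DHFR-PCA score profiles of the baits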;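 for Protein-protein interaction distance between Abp1 SH3-swapped baits, to BZZ1-1: Euclidean distance between DHFR-PCA score profiles of the baits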
# Assay type: cell-based, Saccharomyces cerevisiae
# Outline: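 Interactions were scored by DHFR protein-fragment complementation. DHFR F[1,2]-tagged Abp1 strains, whose SH3 was swapped for yeast or human ortholog domains, were crossed on YPD at 30 °C for 48 h with a 1536-format array of 575 prey-DHFR F[3] strains and 40 negatives, giving four replicates per pair. PCA selection lasted 4 days after double diploid selection.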
# [1] = number of PPIs, difference, Abp1 SH3-swapped with the listed SH3, Fig2D,S2F
molecule,measurement,setting,value
"BBC1: yeast SH3-containing protein; SH3-deleted or knockout strain (protein, UniProt P47068 1-1157, looked up) Myosin tail …: MSEPEVPFKVVAQFPYKSDYEDDLNFEKDQEIIVTSVEDAEWYFGEYQDSNGDVIEGIFPKSFVAVQGSEVGKEAESSPNTGSTEQRTIQPEVEQKDLPEPISPETKKETLSGPVPVPAATVPVPAATVPVPAATAVSAQVQHDSSSGNGERKVPMDSPKLKARLSMFNQDITEQVPLPKSTHLDLENIPVKKTIVADAPKYYVPPGIPTNDTSNLERKKSLKENEKKIVPEPINRAQVESGRIETENDQLKKDLPQMSLKERIALLQEQQRLQAAREEELLRKKAKLEQEHERSAVNKNEPYTETEEAEENEKTEPKPEFTPETEHNEEPQMELLAHKEITKTSREADEGTNDIEKEQFLDEYTKENQKVEESQADEARGENVAEESEIGYGHEDREGDNDEEKEEEDSEENRRAALRERMAKLSGASRFGAPVGFNPFGMASGVGNKPSEEPKKKQHKEKEEEEPEQLQELPRAIPVMPFVDPSSNPFFRKSNLSEKNQPTETKTLDPHATTEHEQKQEHGTHAYHNLAAVDNAHPEYSDHDSDEDTDDHEFEDANDGLRKHSMVEQAFQIGNNESENVNSGEKIYPQEPPISHRTAEVSHDIENSSQNTTGNVLPVSSPQTRVARNGSINSLTKSISGENRRKSINEYHDTVSTNSSALTETAQDISMAAPAAPVLSKVSHPEDKVPPHPVPSAPSAPPVPSAPSVPSAPPVPPAPPALSAPSVPPVPPVPPVSSAPPALSAPSIPPVPPTPPAPPAPPAPLALPKHNEVEEHVKSSAPLPPVSEEYHPMPNTAPPLPRAPPVPPATFEFDSEPTATHSHTAPSPPPHQNVTASTPSMMSTQQRVPTSVLSGAEKESRTLPPHVPSLTNRPVDSFHESDTTPKVASIRRSTTHDVGEISNNVKIEFNAQERWWINKSAPPAISNLKLNFLMEIDDHFISKRLHQKWVVRDFYFLFENYSQLRFSLTFNSTSPEKTVTTLQERFPSPVETQSARILDEYAQRFNAKVVEKSHSLINSHIGAKNFVSQIVSEFKDEVIQPIGARTFGATILSYKPEEGIEQLMKSLQKIKPGDILVIRKAKFEAHKKIGKNEIINVGMDSAAPYSSVVTDYDFTKNKFRVIENHEGKIIQNSYKLSHMKSGKLKVFRIVARGYVGW","Protein-protein interaction distance between Abp1 SH3-swapped baits, to ABP1","Abp1 bait with swapped SH3, distance to bait with ABP1 SH3, sheet Fig2C",7.08
same,"Protein-protein interaction distance between Abp1 SH3-swapped baits, to BBC1","distance to Abp1 bait with BBC1 SH3, sheet Fig2C",0.00
same,"Protein-protein interaction distance between Abp1 SH3-swapped baits, to BEM1-1","distance to Abp1 bait with BEM1-1 SH3, sheet Fig2C",12.07
same,"Protein-protein interaction distance between Abp1 SH3-swapped baits, to BEM1-2","distance to Abp1 bait with BEM1-2 SH3, sheet Fig2C",30.95
same,"Protein-protein interaction distance between Abp1 SH3-swapped baits, to BOI1","distance to Abp1 bait with BOI1 SH3, sheet Fig2C",9.448
same,"Protein-protein interaction distance between Abp1 SH3-swapped baits, to BOI2","distance to Abp1 bait with BOI2 SH3, sheet Fig2C",12.67
same,"Protein-protein interaction distance between Abp1 SH3-swapped baits, to BUD14","distance to Abp1 bait with BUD14 SH3, sheet Fig2C",15.23
same,"Protein-protein interaction distance between Abp1 SH3-swapped baits, to BZZ1-1","distance to Abp1 bait with BZZ1-1 SH3, sheet Fig2C",7.773
same,"Protein-protein interaction distance between Abp1 SH3-swapped baits, to BZZ1-2","distance to Abp1 bait with BZZ1-2 SH3, sheet Fig2C",9.168
same,"Protein-protein interaction distance between Abp1 SH3-swapped baits, to CDC25","distance to Abp1 bait with CDC25 SH3, sheet Fig2C",24.45
same,"Protein-protein interaction distance between Abp1 SH3-swapped baits, to CTTN","distance to Abp1 bait with CTTN SH3, sheet Fig2C",6.802
same,"Protein-protein interaction distance between Abp1 SH3-swapped baits, to CYK3","distance to Abp1 bait with CYK3 SH3, sheet Fig2C",25.11
same,"Protein-protein interaction distance between Abp1 SH3-swapped baits, to DBNL","distance to Abp1 bait with DBNL SH3, sheet Fig2C",7.329
same,"Protein-protein interaction distance between Abp1 SH3-swapped baits, to FUS1","distance to Abp1 bait with FUS1 SH3, sheet Fig2C",16.64
same,"Protein-protein interaction distance between Abp1 SH3-swapped baits, to HCLS1","distance to Abp1 bait with HCLS1 SH3, sheet Fig2C",6.39
same,"Protein-protein interaction distance between Abp1 SH3-swapped baits, to HOF1","distance to Abp1 bait with HOF1 SH3, sheet Fig2C",29.63
same,"Protein-protein interaction distance between Abp1 SH3-swapped baits, to HSE1","distance to Abp1 bait with HSE1 SH3, sheet Fig2C",7.295
same,"Protein-protein interaction distance between Abp1 SH3-swapped baits, to LSB1","distance to Abp1 bait with LSB1 SH3, sheet Fig2C",13.47
same,"Protein-protein interaction distance between Abp1 SH3-swapped baits, to LSB3","distance to Abp1 bait with LSB3 SH3, sheet Fig2C",13.63
same,"Protein-protein interaction distance between Abp1 SH3-swapped baits, to MYO3","distance to Abp1 bait with MYO3 SH3, sheet Fig2C",13.06
same,"Protein-protein interaction distance between Abp1 SH3-swapped baits, to MYO5","distance to Abp1 bait with MYO5 SH3, sheet Fig2C",12.56
same,"Protein-protein interaction distance between Abp1 SH3-swapped baits, to NBP2","distance to Abp1 bait with NBP2 SH3, sheet Fig2C",14.24
same,"Protein-protein interaction distance between Abp1 SH3-swapped baits, to PEX13","distance to Abp1 bait with PEX13 SH3, sheet Fig2C",10.86
same,"Protein-protein interaction distance between Abp1 SH3-swapped baits, to PIN3","distance to Abp1 bait with PIN3 SH3, sheet Fig2C",11.25
same,"Protein-protein interaction distance between Abp1 SH3-swapped baits, to RVS167","distance to Abp1 bait with RVS167 SH3, sheet Fig2C",9.304
same,"Protein-protein interaction distance between Abp1 SH3-swapped baits, to SDC25","distance to Abp1 bait with SDC25 SH3, sheet Fig2C",31.85
same,"Protein-protein interaction distance between Abp1 SH3-swapped baits, to SLA1-1","distance to Abp1 bait with SLA1-1 SH3, sheet Fig2C",27.19
same,"Protein-protein interaction distance between Abp1 SH3-swapped baits, to SLA1-2","distance to Abp1 bait with SLA1-2 SH3, sheet Fig2C",16.91
same,"Protein-protein interaction distance between Abp1 SH3-swapped baits, to SLA1-3","distance to Abp1 bait with SLA1-3 SH3, sheet Fig2C",13.32
same,"Protein-protein interaction distance between Abp1 SH3-swapped baits, to YSC84","distance to Abp1 bait with YSC84 SH3, sheet Fig2C",14.14
same,PPIs gained by Abp1 - SH3-dependent PPIs gained by Abp1,[1],2
same,SH3-dependent PPIs - SH3-dependent PPIs gained by Abp1,[1],19
same,SH3-dependent PPIs gained by Abp1,"number of PPIs, Abp1 SH3-swapped with the listed SH3, DHFR-PCA, Fig2D,S2F",0
same,Interactions in Abp1,"number of interactions of Abp1 carrying the named SH3, sheet FigS2A-B",78

# — publication PMC7954794, “Protein context shapes the specificity of SH3 domain-mediated interactions in vivo” (Nature Communications, 2021)
